Assay [1] has as its target T1, CXCL12 (SDF1α) (UniProt P48061-2 22-89). The experiment in a line: SPR; low-activity fraction (kd1).
In assay [2] the target is T1, CXCL12 (SDF1α). Nature of the assay: SPR; high-activity fraction (kd2). (In general: In SPR one partner is held on a chip, and binding of the other changes the refractive index at the surface.)
In assay [3] the target is T1, CXCL12 (SDF1α). Nature of the assay: SPR; low-activity fraction (KD1, heterogeneous ligand model).
Assay [4] has as its target T1, CXCL12 (SDF1α). Nature of the assay: SPR; high-activity fraction (KD2, heterogeneous ligand model).

A word on the koff: it is the rate constant with which the complex falls apart. The low end stands for a long-lived complex, the high end for a short-lived complex. One may read the Kd as the constant that tells how readily two partners part at equilibrium. Read a low Kd as tighter binding.

T1 sequence (P48061 22-89): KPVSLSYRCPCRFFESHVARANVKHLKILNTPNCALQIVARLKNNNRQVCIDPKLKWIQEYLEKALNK

B1: CXCR4^QTY29 with C-terminal GSSG linker and rho1D4 tag (receptor)
chain: MEGISIYTSDNYTEEMGSGDYDSMKEPCFREENANYNKTFLPTIYSIIYQTGTVGNGLVILVMGYQKKLRSMTDKYRLHLSTADLQFVTTLPYWATDATANWYFGNFLCKAVHVIYTVNLYSSVLILAFISLDRYLAIVHATNSQRPRKLLAEKVVYVGVWTPAQLLTTPDYTFANVSEADDRYICDRFYPNDLWVVVFQFQHIMVGLILPGIVILSCYCIIISKLSHSKGHQKRKALKTTTTLIQAFFACWQPYYTGISIDSYILLEIIKQGCEFENTVHKWISTTEAQAFYHCCTNPTQYAYLGAKFKTSAQHALTSVSRGSSLKILSKGKRGGHSSVSTESESSSFHSS
As for B1, the koff is 0.0356 s⁻¹ in assay [1] and 0.00171 s⁻¹ in assay [2]. Further, the Kd in assay [3] is 1660 nM; in assay [4] it was 29 nM.

B2: native CXCR4 with C-terminal GSSG linker and rho1D4 tag (receptor)
chain: MEGISIYTSDNYTEEMGSGDYDSMKEPCFREENANFNKIFLPTIYSIIFLTGIVGNGLVILVMGYQKKLRSMTDKYRLHLSVADLLFVITLPFWAVDAVANWYFGNFLCKAVHVIYTVNLYSSVLILAFISLDRYLAIVHATNSQRPRKLLAEKVVYVGVWIPALLLTIPDFIFANVSEADDRYICDRFYPNDLWVVVFQFQHIMVGLILPGIVILSCYCIIISKLSHSKGHQKRKALKTTVILILAFFACWLPYYIGISIDSFILLEIIKQGCEFENTVHKWISITEALAFFHCCLNPILYAFLGAKFKTSAQHALTSVSRGSSLKILSKGKRGGHSSVSTESESSSFHSS
Consider B2, for which the koff came to 0.0375 s⁻¹ in assay [1] and 0.00159 s⁻¹ in assay [2]. In addition, the dissociation constant (Kd) in assay [3] stood at 437 nM; in assay [4] it was 56.3 nM.

The values are drawn from publication PMC7721705 (2020).
